Experimental data reported in patent US20190202883A1 (Takeda / Millennium, published 2019).
Square brackets hold non-standard residues; d marks the D form. Side chains are listed from the residue outwards. Phe(2-F) = N[C@@H](Cc1ccccc1F)C(=O)O; αMeF = C[C@](N)(Cc1ccccc1)C(=O)O; Iva = CC[C@](C)(N)C(=O)O; Oda = not defined here; Aib = CC(C)(N)C(=O)O

T1: human GIPR (human, UniProt P48546 22-466)
T1 sequence (looked up): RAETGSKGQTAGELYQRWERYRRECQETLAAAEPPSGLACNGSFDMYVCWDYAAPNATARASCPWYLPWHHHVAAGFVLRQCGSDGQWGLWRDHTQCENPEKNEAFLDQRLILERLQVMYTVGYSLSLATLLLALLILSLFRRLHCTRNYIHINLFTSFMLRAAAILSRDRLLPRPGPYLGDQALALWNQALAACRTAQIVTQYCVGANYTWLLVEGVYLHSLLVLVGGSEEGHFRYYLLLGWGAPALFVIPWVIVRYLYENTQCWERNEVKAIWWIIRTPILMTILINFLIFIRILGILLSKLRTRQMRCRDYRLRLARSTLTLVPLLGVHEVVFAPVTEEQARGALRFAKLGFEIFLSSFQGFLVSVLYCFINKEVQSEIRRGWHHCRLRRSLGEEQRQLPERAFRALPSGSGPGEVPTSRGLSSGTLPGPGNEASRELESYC

T2: human NPY2R (human, UniProt P49146 1-381)
T2 sequence (looked up): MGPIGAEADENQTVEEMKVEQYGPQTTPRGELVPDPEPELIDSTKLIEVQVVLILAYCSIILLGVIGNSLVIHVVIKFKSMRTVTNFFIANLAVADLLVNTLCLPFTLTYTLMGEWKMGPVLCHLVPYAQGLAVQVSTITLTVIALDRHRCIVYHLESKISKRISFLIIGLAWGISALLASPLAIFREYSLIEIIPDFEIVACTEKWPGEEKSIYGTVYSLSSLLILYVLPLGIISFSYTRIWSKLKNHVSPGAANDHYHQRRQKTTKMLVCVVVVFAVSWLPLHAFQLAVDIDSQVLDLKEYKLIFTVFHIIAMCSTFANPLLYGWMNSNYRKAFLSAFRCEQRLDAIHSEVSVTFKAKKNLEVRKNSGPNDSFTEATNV


What was measured:
Test in all cases: cell-based or functional assay
human GLP-1R = human GLP-1R (human, UniProt P43220 24-463)
human GIPR = target: T1, human GIPR
human NPY2R = target: T2, human NPY2R

Binder	Agonist activity (EC50), Cre-luc reporter assay (human GLP-1R)	Agonist activity (EC50), Cre-luc reporter assay (human GIPR)	Agonist activity (EC50), Cre-luc reporter assay (human NPY2R)
Me-Y[Aib]EGT[αMeF]TSDK([Gly-Gly-Gly-Gly-Oda])AI[Aib]LDKQRQ[Iva]EFVRHLLNK[Aib]TRQRY-NH2 (reading uncertain; also: printed as Me-Tyr-Aib-Glu-Gly-Thr-αMePhe-Thr-Ser-Asp-Lys(-Gly-Gly-Gly-Gly-Oda)-Ala-Ile-Aib-Leu-Asp-Lys-Gln-Arg-Gln-Iva-Glu-Phe-Val-Arg-His-Leu-Leu-Asn-Lys-Aib-Thr-Arg-Gln-Arg-Tyr-NH2)	4.4 nM	0.17 nM	3.2 nM
H-Y[Aib]EGT[αMeF]TSDK([Gly-Gly-Gly-Gly-Oda])SI[Aib]LDKQRQ[Iva]EFVRHLLNK[Aib]TRQRY-NH2 (reading uncertain; also: printed as H-Tyr-Aib-Glu-Gly-Thr-αMePhe-Thr-Ser-Asp-Lys(-Gly-Gly-Gly-Gly-Oda)-Ser-Ile-Aib-Leu-Asp-Lys-Gln-Arg-Gln-Iva-Glu-Phe-Val-Arg-His-Leu-Leu-Asn-Lys-Aib-Thr-Arg-Gln-Arg-Tyr-NH2)	0.47 nM	0.11 nM	2.6 nM
H-Y[Aib]EGT[αMeF]TSDK([Gly-Gly-Gly-Gly-Oda])[Aib]I[Aib]LDKQAQ[Iva]EFVRHLLNK[Aib]TRQR[Phe(2-F)]-NH2 (reading uncertain; also: printed as H-Tyr-Aib-Glu-Gly-Thr-αMePhe-Thr-Ser-Asp-Lys(-Gly-Gly-Gly-Gly-Oda)-Aib-Ile-Aib-Leu-Asp-Lys-Gln-Ala-Gln-Iva-Glu-Phe-Val-Arg-His-Leu-Leu-Asn-Lys-Aib-Thr-Arg-Gln-Arg-Phe(2-F)-NH2)	0.11 nM	0.071 nM	2.1 nM
H-Y[Aib]EGT[αMeF]TSDK([Gly-Gly-Gly-Gly-Pal])AI[Aib]LDKQRQ[Iva]EFVRHLLNK[Aib]TRQRY-NH2	0.079 nM	0.066 nM	0.099 nM
H-Y[Aib]EGT[αMeF]TSDK([Gly-Gly-Gly-Gly-Pal])SI[Aib]LDKQRQ[Iva]EFVRHLLNK[Aib]TRQRY-NH2	0.05 nM	0.056 nM	0.048 nM
Me-Y[Aib]EGT[αMeF]TSDK([Gly-Gly-Gly-Gly-Pal])AI[Aib]LDKQRQ[Iva]EFVRHLLNK[Aib]TRQRY-NH2	0.1 nM	0.074 nM	0.1 nM
H-Y[Aib]EGT[αMeF]TSDK([Gly-Gly-Gly-Gly-Oda])AI[Aib]LDKQRQ[Iva]EFVRHLLNK[Aib]TRQRY-NH2 (reading uncertain; also: printed as H-Tyr-Aib-Glu-Gly-Thr-αMePhe-Thr-Ser-Asp-Lys(-Gly-Gly-Gly-Gly-Oda)-Ala-Ile-Aib-Leu-Asp-Lys-Gln-Arg-Gln-Iva-Glu-Phe-Val-Arg-His-Leu-Leu-Asn-Lys-Aib-Thr-Arg-Gln-Arg-Tyr-NH2)	1.2 nM	0.26 nM	3 nM
Me-Y[Aib]EGT[αMeF]TSDK([Gly-Gly-Gly-Gly-Pal])SI[Aib]LDKQRQ[Iva]EFVRHLLNK[Aib]TRQRY-NH2	0.049 nM	0.05 nM	0.081 nM
